Measurements as given in the domain aggregation screens of Martell et al. (2025).

experiment: soluble fraction after stress (log2 fold change); higher = more stays soluble; pooled small domains, quantitative proteomics; details: stress: pH 4
In short: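 Aggregation propensity here comes from the fold change in the soluble amount of each small protein domain after acid stress, measured in pooled custom libraries by high-throughput quantitative proteomics. The acid stress was pH 4. On the log2 scale, higher values mean more of the domain stayed soluble.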

First: HMESLGEKIKNIRISNNLKQSELADILHISEKTISSWENNRTTPDLNMIYKISNYFKKSFYYLISDDYI
Second: HMESMIGSLRGRLLELFGDGEVLIEVGGVGYRVIVTPTTTVRLGDVGGDVFVHVHHHIREADQTLYGF
The “soluble fraction (log2)” value of the first is higher: -0.283 for the first, -0.722 for the second.

Compared with “HMESPSGGHRIALAFDQGTARAVDATYARLTGAGYEGRTKPWDAPWGQRYATVFDPDGNSVDLFAALE”, “HMESRDRVRQASAAGYRFMSTMAGHEPGFEEASRALFAGDQTAFEARITAWPVDVQTHLKKILAEAFTT” is lower in “soluble fraction (log2)” value: -0.544 for the first, -0.939 for the second.

“HMESRLQAAIALRKAGEHEQSREALKILADEPALRAQALLNIAWSFDNQGHERDAEGYYLAAIE” and “HMESSKLQASIINYLERRPTQKFTAEELFKGLSLEKASVFNELVKELTSLERSHKVEITADDKFKIARPQ” are within 0.2 log units of each other in “soluble fraction (log2)” value: 0.127 for the first, 0.0446 for the second.

Going from “HMESSSQLGFELARLVESGNDEEARALVQAKELSEADERKWLYHLGNLLHAAGRPLQASAIWREVGT” to “HMESVQWSVFPSAKYVTIISFDPTTSGGSATAKFKVSDEARSKGFRFRIEAAIGEGIMRSEMYVIEE”, the “soluble fraction (log2)” value rises from -0.436 to -0.0704.

Compared with “HMESWNRARILEKIRELHAQGVALNNASMRRLGYRGMMEAAARPQNFGSWEAAVRAAGIDYDRV”, “HMETAVMPDVMKLDSTTAIQALKDKGFATIETYEVKSDRPAGVVVRQSETADSVVALSKEILLGVSNGADY” is lower in “soluble fraction (log2)” value: 0.22 for the first, -0.00473 for the second.

“HMETGFADTLRKFRKEADMTQEKLAEALGVTTGAVYKWENGRSTPEVRLLVEMADLFGTSVDALLDYKVR” and “HMETGKLIKELRLKKGMTQEELADKTEVSSRTIQRIENGEVDPRAYTLQMIARALEVDYSLFME” are within 0.2 log units of each other in “soluble fraction (log2)” value: -0.723 for the first, -0.683 for the second.

Going from “HMETIELSAPGGVRLDKLIADGTELSRSAAVKLIEQGNVLVNGSPAGKKDIPAAGAAVEITLPEPQ” to “HMETIGENIKTYRQKKGYTQEEVANRLHVTRQTISKWEKNYSIPDAEVLVKLADVLEVQTSQLLGV”, the “soluble fraction (log2)” value rises from -0.255 to at least 0.43.

“HMETIGKRVRAARQELGLTMKQLHEQTGLSTGNISDIENDRNTPSVSSLVALGRALRRSLDWLLTGEE” and “HMETISEIWRLIDGLDEIYRVPLTMYYRSNRSVREIAETLGLSARTVETRIYRARRMIREKWSN” are within 0.2 log units of each other in “soluble fraction (log2)” value: -0.555 for the first, -0.679 for the second.

Compared with “HMETITDRLNRRSLELNVSQADIIRTTGAGRGTVSGWFSGANAPSAKYLESLAVALKTSTTWLLSGKD”, “HMETKERDEQFLEMIRQNEGIIFKVASFYVDKEHPIGDLYQEVVLNLWKGYPSFRGESKYSTWIYRIALNT” is lower in “soluble fraction (log2)” value: 0.0972 for the first, -0.504 for the second.

First: HMETKPTELMLEVHELRIGMFVHLDLGWMDHPFPLNRFKISTNSQIEQIKGLRLKQVKVMTALSDPTALS
Second: HMETKQYIVEAQDEGTRLDVYLTKELGQSRSYVQSLVKEGHVQVNGKTGKSNLKLSSSSEILVTIPEVQ
The “soluble fraction (log2)” value of the first is lower: -1.25 for the first, 0.0538 for the second.

Compared with “HMETLKINTHLGTLNLKKRGKKGTWQINIYFKNIEGDNHYRQSTGTNQLELAKAKAMNMITTEYSNRLAGI”, “HMETMSYAEFNAIRIGKAKLMLADPSLKIWEISEAVGYTDTAHFARTFKKLEGMSANEYRNSL” is lower in “soluble fraction (log2)” value: -0.259 for the first, -0.713 for the second.

Compared with “HMETNFTGTRIATARKAKNMSQAQLAQQLFISPQAVGKWERGESIPDIVTVVKLADVLGVDLNYFSE”, “HMETPQIVARGDLITMVFRSGSLVLTAKGKALENGAMGDTIRVVNSDSNKTLAARVSASREVTVSE” is higher in “soluble fraction (log2)” value: -0.403 for the first, -0.146 for the second.

Going from “HMETPSNTAGITHATSDGYIFKGESDIIGRNSFGFIVKHGSHNHIIPFDSLRGTKWEYLINKYT” to “HMETSVDEVYKKIQAYIEAEDKHKPLSDQKLAEQLQSDGLKVSRRTVAKYREKLNIASSSKRKR”, the “soluble fraction (log2)” value rises from -0.03 to 0.379.

“HMETTVPNVLNHNISTGEILLKENNLNFRIQYIPSNKDEAVGTIINSVPTSGEKVKFGTVVDLKVL” and “HMETVRHFRLDWSQAADRLDKVLASLMNDVSRARIQEWIRLGAVSVNGEILTDVRAKVAGGDAIDVTPQTA” are within 0.2 log units of each other in “soluble fraction (log2)” value: -0.0719 for the first, -0.0931 for the second.

Compared with “HMETVRLSVDAQGAYYWNEQRVDDSALPDLLREASGRKPQPDLHIRGDKAVRYERVAEAMAAAQRAGLKKI”, “HMETVVTEVKTTDVVNIRTSDSETADKLSKAAIGDTFPLLEERGNGWSKVAYNGEEAFIKSDYLEPSKTE” is lower in “soluble fraction (log2)” value: -0.178 for the first, -0.654 for the second.

“HMETYEFNITDKEQTGMRVDKLLPELNSDWSRNQIQDWIKAGLVVANDKVVKSNYKVKLNDHIVVTEKEV” and “HMETYPINVETTGTNVLLRTGPSTSSNIIKTITDKGTVFLSIERGINSDWQKVVTPDGTIGYMSGKY” are within 0.2 log units of each other in “soluble fraction (log2)” value: -0.2 for the first, -0.314 for the second.

“HMEVAVQFIEFKIPENHAWIGKEIREITFPPESILVLIIRDGKKLVPNGKTVLKEGDSLILSGKASD” and “HMEVDDEAIYQGHEPSIRLHRLLKDVGYNSALLPSVVTQIFKDFPGIELAKALPIAMQLLNED” are within 0.2 log units of each other in “soluble fraction (log2)” value: -1.61 for the first, -1.47 for the second.

Going from “HMEVFGDTKEEQMIIDILKLGITDLEHLQAKSMLEPAIFSQTLTMLEISGKIRPLGAGHWTL” to “HMEVFTPSEANVAEAREILAAMATAKANGEGATVYKGRLVDIASIKQAEVIVRQSEMIQSAH”, the “soluble fraction (log2)” value rises from -1.49 to -0.151.

Going from “HMEVIDQLFKIALTLFDIDKGENNSISQDLVDKVIEQMKTTAPTFIKRELSEDEVKKLRFEIQNHFNV” to “HMEVKSGFVHLTGAVKSPGVYPISIGMRLFEVIALAGGFTAKADRESVNLARTVTDGEQIIVSGSG”, the “soluble fraction (log2)” value falls from -0.411 to -0.778.

Compared with “HMEVLEGFIEDIKFKSEESGYTVAKLNNRNKSIVIVGTMPFISEGQHVKLTGEWKIHQKFGAQFNVKELEE”, “HMEVMYFIYQQEEPMRIDKFLVNEMEDFSRNSIQIYIKDNHVLVNDKVVKANYILKKGDAISITIPDPI” is higher in “soluble fraction (log2)” value: -1.37 for the first, -0.768 for the second.

Compared with “HMEVNMEEKMEFVHSYIKTHKTFLFRQLLSESKSRTQVIVTFLVILELIKGGKISVTQENRTDDILINSL”, “HMEVPDTIIRLRELVAAMPEQWQKVYRLVFMEGLSKAKAGKKIGISDVRVGQLVKKINAAIAGDETLK” is higher in “soluble fraction (log2)” value: -0.521 for the first, 0.0594 for the second.

Going from “HMEVPMELPRQLRANRERLGLSQEDVAHAIYVSRQTMSSWERGKTYPDVQSLMLLSHLFGISIDELVKGDV” to “HMEVPVQYIKFKIPENHFWAKKKVADIILPPETLLVLLQRGSDKMIPDGETVLLPEDTLVLIAKAPG”, the “soluble fraction (log2)” value falls from -0.338 to -0.783.

Compared with “HMEVSVPDFTGMSKSDAQNAAKEAGLTVNFEEDYDNQVPAGQVIRSNPSAGEKVKKNSSVTVTLSKGSN”, “HMEVSYSLPRFHKGKNPYVDFYQVDPRTLRMRRKKFLLRGVRDAVLLEQRAADLVALLTERLHSGWNAWDD” is lower in “soluble fraction (log2)” value: 0.24 for the first, -0.463 for the second.

First: HMEVTENQEKHAYQEAMDQALRFLAPRFLSRAELTRKLLQKEHDRDVIDAVIDRLEELDYVDDAR
Second: HMEVTLGLGSMVRLLGEPYLGSTGRVVELPDQAERFASGLTAKVAVVERHDGELIRVPVTNLLLME
The “soluble fraction (log2)” value of the first is lower: -0.69 for the first, 0.214 for the second.

Going from “HMEVTLTLKSFGTAKVAVIKAIQSITGLGLMDAKKLVDAAPSVIKEKISPSEAEQYKKTLVDAGAEVEI” to “HMEVVVPDFEKIYIRDLDKFVEGHNVRYEIVDSIYNLEKDKGTVVDQDPEPGSKVKHGRVIYLTVNAML”, the “soluble fraction (log2)” value falls from 0.0249 to -0.678.

“HMEVVVPEDLDAALQQASRAQSFFSSLSYTHKKEYVAWINEAKRAETRAMRIQKTITMLESGQRGH” and “HMEWEVHSVTVTPELSGERLDVAATALLSQFSRALVQRWIDANELTLNERPVKAKSKVRVGDLIAVKAK” are within 0.2 log units of each other in “soluble fraction (log2)” value: 0.28 for the first, 0.0878 for the second.

“HMEWLENIKKLKKEKGLTNESLSEKSGISVGTLNKLLSGATTDPKLSTLRPLADALEVSLDELLAI” and “HMEWTDIPTHKVPNVVGKSVEEAKKKLSKFTIEYSGTGEKVVAQSPDAGEKLEEGGTVRLLL” are within 0.2 log units of each other in “soluble fraction (log2)” value: -0.187 for the first, 0.00183 for the second.

“HMEYEETMSQIKHNLNLLPRQQRVIIEMAKFDELTPAEIAKQLGISVQTVRNQLSTGLKKLRQLL” and “HMEYKKKIGELLIDGNKKLKAANIDTYILDTQLLLGKVLGKDKLYLITNKDEEVSNFKEREFYSLIEKRI” are within 0.2 log units of each other in “soluble fraction (log2)” value: -0.373 for the first, -0.304 for the second.

First: HMEYMKQRLYDIIELFKRSFSPSFSEEEKKKLENVLQDDFLRKAYEQLSDEVFIEEKFREFDGY
Second: HMEYPNEIARIFNQIPELNVSAVARTLGINKSLLSSYIYGMKKPSPERTEEIKSAIRKIGQNMLAV
The “soluble fraction (log2)” value of the first is lower: -2.28 for the first, 0.000369 for the second.

“HMEYQSLVLDFLEQGDFNAEKLKDYQRAFAKQNGMQTLPSKSQILQAYFQLVEEKKINKNSDFELLLRKR” and “HMEYSNLGEALRRLSEIDLQIILLKYSHGFSIKEISKILDIKEVNLYKRNKRALNKLKKILAEMEVLSN” are within 0.2 log units of each other in “soluble fraction (log2)” value: -0.362 for the first, -0.272 for the second.

First: HMEYYDDEELDRFRGVEADAYDEDAVNEFRDVLYTLQEIEVAGWLRSLQLRAINLPDELKDEAFLI
Second: HMEYYEDEELDRFRGRNSDQYSDAEIEEFNEILTTLRSEEVAGWIRSLQLREIALPDELKDDVILLVG
The “soluble fraction (log2)” value of the first is lower: -2.01 for the first, -1.51 for the second.

Compared with “HMEYYIMPVANLHKVVVDGKDMSNLISNNAIAVKANVIDEGQIQIKPGEIIITTPAGVSPEEAVRSP”, “HMFANQLLLTRFDLNYIKSDVLSRQIDVLGIPIKKLTIEANNKSIWLQGTSQSLSKVRELIGIIDIRENA” is lower in “soluble fraction (log2)” value: -0.135 for the first, -1.73 for the second.

Going from “HMFAQDKKFITYKVKEGETVQSISKALSITPYDLLKLNPDIKDNVSQDDLLIIPNKQYDPLGDI” to “HMFDENVKLIENEYDVSIISRGSELKVMGDVENVDKAARALRSMLAMINKGESLTEQNVRYVLTLVNEGNE”, the “soluble fraction (log2)” value falls from 0.421 to -1.38.

Compared with “HMFDFLELGQAIQDAREKQRITREELAEELGISARHLQSVEKEGQYPSFRLFIQLVTMFHISVDQYI”, “HMFDLATVKRVAEEAGMKFTIHPVELRAAHPNTAVLTLKSKAGRILVLKAASVGGGRIRVTEIDGVPAD” is higher in “soluble fraction (log2)” value: -0.586 for the first, 0.219 for the second.

Compared with “HMFDLDIEQIANDLKHGVMPNLYGLSLQDALYLLEAKGIRVKVAGSGSVVNQSIKTGAYVGSGSVLKLEL”, “HMFDLSQRQEQIIEIVRKHGPITGEKIADLLYVTRAALRPDLAILTMSGYLEAKPRVGYTYK” is higher in “soluble fraction (log2)” value: -0.833 for the first, -0.0725 for the second.

“HMFDMLGDQIKKYRKEKKMSQEELAIPLNVVRQTVSKWENNLSVPDAELLIRLAEVLEISVAELLGT” and “HMFDTVFIVRKTSDKPLDGLRTYLNSIGDSLVIGEDDEAFKVHVHTNHPGKVLEEAITYGALQTVKIENMR” are within 0.2 log units of each other in “soluble fraction (log2)” value: -0.76 for the first, -0.585 for the second.

First: HMFDTVTIGRKIAELRKAHNMTQFELADALGISFQAVSNWERGASMPDISKLPELAEIFGVTIDEVLGK
Second: HMFEATGKITGTEVSFRRKPTTDSERILFFDINTEFRVIGINNGWYKGVYQGKTGYVRSDFVEIVGG
The “soluble fraction (log2)” value of the first is lower: -1.06 for the first, -0.448 for the second.

With “HMFEEPYLATYPVLIDPKLAFNVLDTMLEGLEVKMDQDEETGAISVLAPASIHTKITEYLDALSKQ” the “soluble fraction (log2)” value was -1.74.
